Biological target: T1, 35S-labeled in vitro translated HA-tagged BI-2 (human, UniProt Q9NZS9 1-450, 35S-labeled methionine (in vitro translation))
T1 construct: Made by TNT rabbit reticulocyte in vitro transcription/translation; also called HA-BI-2; not shown: three copies of the HA tag at the N-terminus (vector pSN503)
T1 sequence: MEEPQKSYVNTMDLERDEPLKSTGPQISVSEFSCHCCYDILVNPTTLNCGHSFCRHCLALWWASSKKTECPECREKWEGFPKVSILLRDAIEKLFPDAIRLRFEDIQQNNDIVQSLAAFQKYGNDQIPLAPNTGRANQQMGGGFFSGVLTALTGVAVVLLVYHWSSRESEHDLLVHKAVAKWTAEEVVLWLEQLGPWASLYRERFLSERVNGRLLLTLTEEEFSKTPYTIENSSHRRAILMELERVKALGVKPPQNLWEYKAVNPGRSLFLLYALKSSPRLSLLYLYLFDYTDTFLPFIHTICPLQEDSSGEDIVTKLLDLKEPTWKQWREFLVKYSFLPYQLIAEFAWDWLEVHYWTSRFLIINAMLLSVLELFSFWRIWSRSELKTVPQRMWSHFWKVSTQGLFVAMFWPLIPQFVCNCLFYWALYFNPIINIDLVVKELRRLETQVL
Assay: GST pull-down: about 5 ug GST fusion protein on glutathione SEPHAROSE, 35S-labeled in vitro translated HA-BI-2, SDS-PAGE and autoradiography
Procedure: Approximately 5 µg of the following fusion proteins, including GST control, GST-CD40 cytosolic domain, GST-Bcl-2, GST-Bax or GST-BI-2, were immobilized on glutathione SEPHAROSE, then 8 µl of ^35S-labeled in vitro translated HA-tagged BI-2 in binding buffer was added. After incubation at 4° C. for 2 hr, the beads were washed 5× with binding buffer and the associated proteins were eluted in Laemli sample buffer and analyzed by SDS-PAGE (10% gel). As a control, ^35S-labeled BI-2 was loaded directly into the gel, using one-quarter the amount employed for the binding experiments. Following electrophoresis, the gels were dried and exposed to X-ray film.

B1: GST-CD40 cytosolic domain (other, UniProt P25942 216-277, looked up)
chain: KKVAKKPTNKAPHPKQEPQEINFPDDLPGSNTAAPVQETLHGCQPVTQEDGKESRISVQERQ
notes: domain: cytosolic domain; Unrelated control protein; not shown: glutathione S-transferase (GST) fusion partner
B1: no binding.
